In article PMC7531118, “Investigating host-microbiome interactions by droplet based microfluidics” (Microbiome, 2020):

Key:
[1] = test system: CC(=O)N[C@H]1[C@H](Oc2ccc([N+](=O)[O-])cc2)O[C@H](CO)[C@@H](O)[C@@H]1O; assay: purified protein; details: citrate buffer pH 5.5, 0.25 to 1.5 mM substrate, 30.0 °C
[2] = test system: CC(=O)N[C@H]1[C@H](Oc2ccc([N+](=O)[O-])cc2)O[C@H](CO)[C@H](O)[C@@H]1O; assay: purified protein; details: citrate buffer pH 5.5, 0.25 to 1.5 mM substrate, 30.0 °C

Question: With “Uhgb_GH123 (Phocaeicola plebeius DSM 17135)” as the substance, how does the Km [1] read?
Answer: 3870 ± 270 µM

Question: And the kcat [1]?
Answer: 0.33 ± 0.02 s⁻¹

Question: And the kcat/Km [1]?
Answer: 85 M⁻¹ s⁻¹

Question: And the Km [2]?
Answer: 1170 ± 100 µM

Question: What about the kcat [2] of the same substance?
Answer: 21.2 ± 1.18 s⁻¹

Question: And the kcat/Km [2]?
Answer: 18200 M⁻¹ s⁻¹
